The results in this text go back to patent US20240209099A1 (SUZHOU TRANSCENTA THERAPEUTICS, published 2024).

The target in assay [1] is T1, mouse VEGFR2 (mouse, UniProt P35918 20-762, limits assumed). Description: ELISA, 500 ng/mL mouse VEGFR2 coated, three lots. As to the method:
(§1) ELISA binding assay was conducted to confirm its binding affinity. Briefly, ELISA plates were coated with 500 ng/mL mouse VEGFR2 in coating buffer (0.16% Na₂CO₃, 0.30% NaHCO₃) and incubated at 4° C. overnight. After twice washing, blocking buffer (1% BSA, 1% goat serum, 0.05% Tween20 in PBS) was added and plates were incubated at room temperature for 2 hours. After three times washing, serial diluted chimeric-DC101 was added in dilution buffer (1% BSA, 1% goat serum, 0.01% Tween20 in PBS) and plates were incubated at room temperature for 3 hours. After three times washing, goat anti-human HRP (1:5000 diluted) was added and plates were incubated at room temperature for 1 hour. Finally, after three times washing, TMB was added and 4 mins later 0.16 mol/L sulfuric acid was added to terminate the reaction. OD450 nm was read and recorded.
(In general: In an ELISA, binding on a coated surface is turned into a signal by an enzyme label.)

Assay [2] deals with T1, mouse VEGFR2. Put plainly: ELISA, mouse VEGFR2 coated (500 ng/mL), goat anti-human HRP. The protocol:
as §1

The target in assay [3] is T1, mouse VEGFR2. Description: competition ELISA: human VEGF165 coated (250 ng/mL), antibody titrated with 1000 ng/mL mouse VEGFR2, bound mouse VEGFR2 detected; blocked ligand human VEGF165. As to the method:
ELISA blocking assay was conducted to confirm its VEGF blockade activity. Briefly, ELISA plates were coated with 250 ng/mL recombinant human VEGF165 in coating buffer and incubated at 4° C. overnight. After twice washing, blocking buffer was added and plates were incubated at room temperature for 2 hours. After three times washing, serial diluted chimeric-DC101 was added in dilution buffer and then 1000 ng/mL mouse VEGFR2 was added. Plates were incubated at room temperature for 3 hours. After three times washing, polyclonal anti-mouse VEGFR2 with mouse Fc (1: 1000) was added and plates were incubated at room temperature for 1 hour. After three times washing, goat anti-mouse HRP (1:5000 diluted) was added and plates were incubated at room temperature for 1 hour. Finally, after three times washing, TMB was added and 4 mins later 0.16 mol/L sulfuric acid was added to terminate the reaction. OD450 nm was read and recorded.

The target of assay [4] is T2, Recombinant Human VEGFR2/KDR Protein, His tag (hVEGFR2-his) (human, UniProt P35968 20-764).
T2 construct: Expressed in HEK293, bought from ACRO Biosystems; also called human VEGFR2-his; Human VEGFR2/KDR-His
T2 sequence (P35968 other isoform, or with tags, fused parts or gaps): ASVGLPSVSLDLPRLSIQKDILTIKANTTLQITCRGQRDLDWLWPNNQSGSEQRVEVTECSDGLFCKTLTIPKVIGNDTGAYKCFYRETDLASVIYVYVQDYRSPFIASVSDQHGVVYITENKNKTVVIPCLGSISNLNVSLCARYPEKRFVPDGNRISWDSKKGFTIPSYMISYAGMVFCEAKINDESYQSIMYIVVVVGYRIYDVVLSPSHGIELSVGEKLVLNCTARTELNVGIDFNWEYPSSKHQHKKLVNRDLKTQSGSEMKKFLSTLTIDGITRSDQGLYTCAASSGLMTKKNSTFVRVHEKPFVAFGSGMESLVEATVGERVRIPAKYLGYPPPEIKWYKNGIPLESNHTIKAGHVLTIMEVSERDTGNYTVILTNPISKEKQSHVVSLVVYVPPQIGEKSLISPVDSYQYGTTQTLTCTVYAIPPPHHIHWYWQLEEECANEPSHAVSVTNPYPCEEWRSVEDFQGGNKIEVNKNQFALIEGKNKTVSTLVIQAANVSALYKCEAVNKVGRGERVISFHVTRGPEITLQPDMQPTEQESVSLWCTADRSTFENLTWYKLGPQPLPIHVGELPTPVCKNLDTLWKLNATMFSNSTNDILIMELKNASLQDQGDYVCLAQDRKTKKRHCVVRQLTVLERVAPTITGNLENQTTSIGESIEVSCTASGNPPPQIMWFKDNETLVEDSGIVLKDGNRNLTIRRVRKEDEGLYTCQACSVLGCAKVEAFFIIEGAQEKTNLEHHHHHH
Description: competition ELISA: hVEGFR2-his coated (1 ug/ml), antibody titrated, then 0.3 ug/ml hVEGF-A added and bound VEGF-A detected; blocked ligand hVEGF-A. The protocol:
High-binding clear polystyrene 96 well plates were coated with 100 μl/well of 1 μg/ml hVEGFR2-his overnight at 4° C. After washing and blocking, serial diluted antibodies (from 10 μg/ml to 0.0006 μg/ml) were added and incubate for 1 hour at RT. 0.3 μg/ml hVEGF-A (Acrobiosystem, Cat #VE5-H4210) were added and incubated for 2 hour at RT. Then 100 μl/well of 0.25 μg/ml Biotinylated Rabbit Anti-human VEGF-A (Peprotech, Cat #400-P10Bt) was then added for detecting bound VEGF-A. Then 100 μl/well of a solution of HRP conjugated Neutravidin antibody (Pierce, Cat #31001) and TMB were added sequentially. Finally, reaction was terminated using 0.64M H₂SO₄ and plates were read at 450 nm.

Assay [5] concerns the target T2, Recombinant Human VEGFR2/KDR Protein, …. Description: SPR (Biacore), antibody captured by anti-Fc, antigen 2.5-80 nM. An outline of the steps:
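Human or mouse Fc-captured antibody (200–300 RU) on anti-Fc CM5 surface; antigen injected at 2.5–80 nM in HBS-EP pH 7.4 with 180 s association. Reference-cell-subtracted sensorgrams; regeneration with glycine pH 1.5.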

The target is the same in assay [6]. Put plainly: SPR (Biacore), antibody captured by anti-Fc, antigen 2.5-80 nM; second entry for mAb054 10D11F4D1F6 (r13; r11 gives another run). The protocol: A CM5 sensor chip was activated in each flow cell by 7-min injection (10 μl/min) of freshly prepared 1:1 50 mM N-hydroxysuccinimide (NHS): 200 mM 1-ethyl-3-(3-dimethylaminopropyl)-carbodiimide (EDC). Then anti-human Fc antibody (GE Healthcare) in a concentration of 10 μg/ml in 10 mM sodium acetate buffer PH 5.0 was injected onto the activated chip at 10 μl/min (HBS-EP running buffer: 10 mM HEPES, 150 mM NaCl, 3.4 mM EDTA, 0.005% surfactant P20, pH 7.4). The remaining active coupling sites were blocked by 7 min injection of 1M ethanolamine at 10 μl/min. The immobilization level of each flow cell is ˜9000RU. Antibodies were captured in FC2 by anti-human Fc IgG or anti-mouse Fc (GE Healthcare) to 200˜300RU. FC1 was used as the reference cell. Antigen was injected at varying concentrations (2.5 nM, 5 nM, 10 nM, 20 nM, 40 nM and 80 nM) after capture of antibody. The association time for antibody binding antigen is 180s. Surface Regeneration condition is 120s at 10 μl/min in Gly pH1.5. The signals with captured antibody subtracted from those without captured antibody were calculated with Biacore X100 evaluation software ver. 2.0 (Biacore).

The target is the same in assay [7]. Put plainly: ELISA, hVEGFR2-his coated. The protocol:
Same protocol of Example 2 antibody screening by ELISA assay. Briefly, 0.5 μg/ml hVEGFR2-his was coated and serially diluted purified antibodies would bind to coated antigen. Using HRP conjugated goat anti-mouse Fc antibody could detect binding signals of each antibody.
The hybridoma antibodies have similar affinity to human.

The target in assay [8] is T3, human VEGFR2 on HUVEC cells (human, UniProt P35968 20-1356).
T3 construct: also called hVEGFR2 on HUVEC
T3 sequence (P35968 20-1356 V297I/Q472H limits assumed): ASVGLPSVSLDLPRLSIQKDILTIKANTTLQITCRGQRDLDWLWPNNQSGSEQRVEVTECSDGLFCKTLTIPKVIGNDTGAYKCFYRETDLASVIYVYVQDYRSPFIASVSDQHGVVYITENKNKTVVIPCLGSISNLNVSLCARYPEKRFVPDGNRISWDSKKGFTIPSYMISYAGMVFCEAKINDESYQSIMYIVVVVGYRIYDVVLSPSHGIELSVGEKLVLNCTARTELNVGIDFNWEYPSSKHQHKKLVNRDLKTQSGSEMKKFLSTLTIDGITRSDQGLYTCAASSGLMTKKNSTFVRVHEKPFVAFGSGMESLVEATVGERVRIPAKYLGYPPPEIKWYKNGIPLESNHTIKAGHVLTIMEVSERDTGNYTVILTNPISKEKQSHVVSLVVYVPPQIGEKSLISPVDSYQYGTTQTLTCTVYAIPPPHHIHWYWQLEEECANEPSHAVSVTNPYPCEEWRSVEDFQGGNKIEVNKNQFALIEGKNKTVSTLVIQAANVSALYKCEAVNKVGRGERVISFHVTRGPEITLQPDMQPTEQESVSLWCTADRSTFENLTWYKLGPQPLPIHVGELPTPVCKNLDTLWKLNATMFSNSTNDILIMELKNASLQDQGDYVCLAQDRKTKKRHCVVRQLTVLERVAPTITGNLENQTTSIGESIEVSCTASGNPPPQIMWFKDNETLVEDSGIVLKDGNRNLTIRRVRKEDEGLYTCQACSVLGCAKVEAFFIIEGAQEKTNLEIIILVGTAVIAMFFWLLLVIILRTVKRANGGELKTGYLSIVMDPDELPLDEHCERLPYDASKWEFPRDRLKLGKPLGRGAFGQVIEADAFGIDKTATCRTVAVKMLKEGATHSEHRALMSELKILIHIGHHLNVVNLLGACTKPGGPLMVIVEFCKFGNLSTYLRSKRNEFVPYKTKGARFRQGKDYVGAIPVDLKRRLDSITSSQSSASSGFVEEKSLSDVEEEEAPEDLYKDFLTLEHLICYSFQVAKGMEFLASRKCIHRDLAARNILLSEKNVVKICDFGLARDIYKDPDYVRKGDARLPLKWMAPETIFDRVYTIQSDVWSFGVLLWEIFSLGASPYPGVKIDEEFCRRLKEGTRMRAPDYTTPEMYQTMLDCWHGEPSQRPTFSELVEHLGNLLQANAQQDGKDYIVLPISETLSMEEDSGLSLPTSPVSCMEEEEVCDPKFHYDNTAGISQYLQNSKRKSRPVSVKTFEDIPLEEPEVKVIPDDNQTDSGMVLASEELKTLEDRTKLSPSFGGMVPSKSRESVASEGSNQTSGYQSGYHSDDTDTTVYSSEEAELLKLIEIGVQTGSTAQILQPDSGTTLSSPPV
Put plainly: flow cytometry on HUVEC cells, percent shifted cells (Shift%), anti-mouse IgG-PE. As to the method: Log phase HUVEC cells were collected, counted and resuspended in FACS buffer (5% BSA+PBS). 2×10∧5 cells were added to each tube and then washed once with PBS (1500 rpm, 5 mins, RT). Then […] serial diluted VEGFR2 antibodies purified from hybridoma supernatant in FACS buffer were added into corresponding tubes and were incubated at 4° C. for 1 hr. The cells were then washed twice with 1 ml PBS, followed by adding 100 μl/tube of 2nd antibody (1:400 anti-mIgG (H+L)-PE, Cell signaling #8887) in FACS buffer. The cells were incubated at 4° C. for 0.5 hr and then washed twice with PBS, followed by resuspending cells in 600 μl PBS for each sample. The cells were then transferred into FACS tube and the bindings of the antibodies to the cells were detected using flow cytometry (BD Accuri C6) (see FIG. 3).
The percentage of positive binding cells was calculated and fit by Graphpad Prism Software.
A general note: In flow cytometry, cells or beads pass a laser one at a time.

Assay [9] has as its target T2, Recombinant Human VEGFR2/KDR Protein, …. Put plainly: competition ELISA on coated hVEGFR2-his: hybridoma antibody titrated against 100 ng/ml chimeric 002C, anti-human IgG Fc-HRP.

“And” between values parts separate entries of the source, which are not always exact repeats. Identical values can stand only once.

T1 sequence (P35918 20-762 limits assumed): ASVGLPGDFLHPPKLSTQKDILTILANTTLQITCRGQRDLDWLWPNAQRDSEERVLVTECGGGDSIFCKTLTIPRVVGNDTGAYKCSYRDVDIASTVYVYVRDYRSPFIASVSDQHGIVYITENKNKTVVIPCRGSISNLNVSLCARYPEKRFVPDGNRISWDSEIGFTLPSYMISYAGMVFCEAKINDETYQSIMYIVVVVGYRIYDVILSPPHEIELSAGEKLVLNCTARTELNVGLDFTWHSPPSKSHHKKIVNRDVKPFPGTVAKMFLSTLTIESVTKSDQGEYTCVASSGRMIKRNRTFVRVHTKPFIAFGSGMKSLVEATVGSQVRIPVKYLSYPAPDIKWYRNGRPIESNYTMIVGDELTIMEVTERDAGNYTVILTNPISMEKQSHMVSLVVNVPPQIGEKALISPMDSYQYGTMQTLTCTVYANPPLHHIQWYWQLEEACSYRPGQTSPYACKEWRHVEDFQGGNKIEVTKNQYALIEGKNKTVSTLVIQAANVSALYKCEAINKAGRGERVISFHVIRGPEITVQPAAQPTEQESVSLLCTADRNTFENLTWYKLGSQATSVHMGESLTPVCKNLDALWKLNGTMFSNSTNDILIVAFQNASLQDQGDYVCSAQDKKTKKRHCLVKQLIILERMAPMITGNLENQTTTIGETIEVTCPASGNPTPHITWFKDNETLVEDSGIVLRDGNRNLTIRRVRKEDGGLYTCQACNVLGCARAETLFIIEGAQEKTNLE

B1: chimeric-DC101 (anti-mouse VEGFR2 antibody DC101 with human IgG1 Fc) (antibody, V domains shown)
VH: EVQLVETGGGLVQPGNSLKLSCATSGFIFSTTWMNWIRQTPGKRLEWLAQIEDKSNNYFISYSESVKGRFTISRDDSKSSVYLQMNNLKEEDTAIYYCSWKYRSNYYFDYWGQGVMVTVSS
VL: DIVLTQSPALAVSLEQRATISCKTSQNVDYYGISYLHWYQQKPGQQPKLLIYEGSNLASGIPARFSGSGSGTDFTLTIDPVEADDIVTYYCQQSKDYPYTFGAGTKLELKR
Consider B1, for which the concentration giving a half-maximal response (EC50) in assay [1] was roughly 0.06 µg/mL; in [2] it was 0.0645 µg/mL and 0.0477 µg/mL and 0.0764 µg/mL. Moreover, the half-inhibitory concentration (IC50) in assay [3] is 0.301 µg/mL and 0.28 µg/mL and 0.265 µg/mL.

B2: 054 (mouse hybridoma antibody) (antibody, V domains shown)
VH: EVQLVESGGDLVKPGGSLKLSCAASGFTFSMYGMSWVRQTPDKRLEWVASISIGGSYTYYADSVEGRFIISRENAKNTLFLQMNSLKSEDTALYYCARELDGNYDYWGQGTTLTVSS
VL: HIMITQDELSNPVTFGESVSISCRSSKSLLYKDGKTYLNWFLQRPGQSPQLLIYLMSTRASGVSDRFSGSGSGTDFTLEISRVKAEDVGIYYCQQLVEYPFTFGSGTKLEIK
notes: Mouse antibody purified from hybridoma; also called mAb054; 10D11
For B2, the IC50 in [4] came to 0.0433 µg/mL. For the same molecule, the dissociation rate constant (koff) was determined as 9.12e-05 s⁻¹ in assay [5] and 1.22e-05 s⁻¹ in [6]. Further, the kon in assay [5] is 91800 M⁻¹ s⁻¹ and 97000 M⁻¹ s⁻¹. Moreover, the 50% effective concentration (EC50) turned out to be 8.09 ng/mL in [7] and 0.0612 µg/mL in [8]. Besides, the “IC50 (read off the curve)” value in [9] is roughly 0.1 µg/mL.

By EC50 is commonly meant the midpoint of the concentration-response curve. Broadly, the IC50 is the concentration that gives 50% inhibition. Usually koff stands for the rate constant with which the complex falls apart. Usually kon stands for the second-order rate constant of association.
